Measured values taken from patent US20200377590A1 (Hoffmann-La Roche, published 2020).
Positions count from the first letter of the chain named. Like-named read-outs stand apart in the source and are kept apart here.

T1: CD81 (UniProt P60033 1-236, limits assumed)
T1 construct: whole, on cells; also called CD81 receptor
T1 sequence (looked up): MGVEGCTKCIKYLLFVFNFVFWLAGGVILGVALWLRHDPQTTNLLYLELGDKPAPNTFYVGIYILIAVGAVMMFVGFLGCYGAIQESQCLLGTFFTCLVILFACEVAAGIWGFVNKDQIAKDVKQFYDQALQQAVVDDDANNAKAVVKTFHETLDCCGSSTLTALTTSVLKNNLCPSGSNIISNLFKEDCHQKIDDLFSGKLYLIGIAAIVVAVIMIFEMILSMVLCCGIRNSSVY

B1: CD81K04 HC JA_GG-16-hVH_1_3 / LC CD81K04 (antibody, V domains shown)
VH: QVQLVQSGAEVKKPGASVKVSCKASGYTFSSSWMNWVRQAPGQGLEWMGRIYSGDGDAIYNGKFKGRVTITADTSASTAYMELSSLRSEDTAVYYCAREGKTGDLLLRSWGQGTLVTVSS
VL: DIVLTQSPASLSVSLGQRATISCRASKSVSTSIYSYMHWYQQKPGQPPKLLIKYASYLESGVPARFSGSGSGTDFTLNIHPVEEEDAATYYCEHSREFPFTFGTGTKLEIK
notes: human constant region
B2: CD81K04 HC K04_JA-13-hVH_1_3 / LC CD81K04 (antibody, V domains shown)
VH: B1 VH with G44R, A72R
VL: B1 VL
notes: human constant region
B3: CD81K04 HC CD81K04 / LC GG-06-hVK_1_39 (antibody, V domains shown)
VH: QVQLQQSGPELVKPGASVKISCKASGYTFSSSWMNWVKQRPGKGLEWIGRIYSGDGDAIYNGKFKGKATLTADKSSSTAYMQLSSLTSEDSAVYFCAREGKTGDLLLRSWGQGSALTVSS
VL: DIQMTQSPSSLSASVGDRVTITCRASKSVSTSIYSYLNWYQQKPGKAPKLLIYYASYLQSGVPSRFSGSGSGTDFTLTISSLQPEDFATYYCQHSREFPYTFGQGTKLEIK
notes: human constant region
B4: CD81K13 HC CD81K13 / LC 1c-hVK_3_15 (antibody, V domains shown)
VH: EVRLHQSAAQLVQPGASVRLSCTTSGFNFKDSYLHWVKQRPAQGLEWIGRIDTGNGNVKFDPKFQDKATITTDIPSMTAYLHLSNLTSEDTAVYYCVPYGYGFHSWGDGTTLTVSS
VL: EIVMTQSPATLSVSPGERATLSCRASENIYRTLAWYQQKPGQAPRLLIYGATTLADGIPARFSGSGSGTEFTLTISSLQSEDFGVYYCQHFWGTPWTFGQGTKVEIK
notes: human constant region
B5: CD81K13 HC CD81K13 / LC 01-hVK_3_15 (antibody, V domains shown)
VH: B4 VH
VL: B4 VL with L54R, D56T
notes: human constant region
B6: CD81K13 HC CD81K13 / LC 1b-hVK_3_15 (antibody, V domains shown)
VH: B4 VH
VL: B4 VL with G84A
notes: human constant region
B7: CD81K13 HC CD81K13 / LC 05-hVK_1_39 (antibody, V domains shown)
VH: B4 VH
VL: DIQMTQSPSSLSASVGDRVTITCRASENIYRTLAWYQQKPGKAPKLLIYAATTLASGVPSRFSGSGSGTDFTLTISSLQPEDFATYYCQHFWGTPWTFGQGTKVEIK
notes: human constant region
B8: CD81K13 HC CD81K13 / LC 03-hVK_1_9 (antibody, V domains shown)
VH: B4 VH
VL: B7 VL with M4L, S10F, D70E
notes: human constant region
B9: CD81K13 HC CD81K13 / LC 04-hVK_1_9 (antibody, V domains shown)
VH: B4 VH
VL: B7 VL with M4L, S10F, D70E, A84G
notes: human constant region
B10: CD81K13 HC CD81K13 / LC 5b-hVK_1_39 (antibody, V domains shown)
VH: B4 VH
VL: B7 VL with A50G, S56D
notes: human constant region
B11: CD81K13 HC CD81K13 / LC 5b-hVK_1_39-GA (antibody, V domains shown)
VH: B4 VH
VL: B7 VL with A50G, S56D
notes: human constant region
B12: CD81K13 HC CD81K13 / LC 06-hVK_1_39 (antibody, V domains shown)
VH: B4 VH
VL: B7 VL with A84G
notes: human constant region
B13: CD81K13 HC CD81K13 / LC 07-hVK_1_27 (antibody, V domains shown)
VH: B4 VH
VL: B7 VL with A43V, F83V, A84G, H90K
notes: human constant region
B14: CD81K13 HC 01-hVH_1_f / LC CD81K13 (antibody, V domains shown)
VH: EVQLVQSGAEVKKPGATVKISCKVSGYTFTDSYMHWVQQAPGKGLEWMGRIDTGNGNVKFDPKFQGRVTITADTSTDTAYMELSSLRSEDTAVYYCAPYGYGFHSWGQGTLVTVSS
VL: DIQMTQSPASLSVSVGETVTITCRASENIYRTLAWYLQKQGKSPQLLVYGATTLADGVPSRFSGSGSGTQYYLKINSLQSEDFGTYHCQHFWGTPWTFGGGTKVEIK
notes: human constant region
B15: CD81K13 HC 01-hVH_1_f / LC 01-hVK_3_15 (antibody, V domains shown)
VH: B14 VH
VL: B4 VL with L54R, D56T
notes: human constant region
B16: CD81K13 HC 01-hVH_1_f / LC 1b-hVK_3_15 (antibody, V domains shown)
VH: B14 VH
VL: B4 VL with G84A
notes: human constant region
B17: CD81K13 HC 01-hVH_1_f / LC 1c-hVK_3_15 (antibody, V domains shown)
VH: B14 VH
VL: B4 VL
notes: human constant region
B18: CD81K13 HC 01-hVH_1_f / LC 03-hVK_1_9 (antibody, V domains shown)
VH: B14 VH
VL: B7 VL with M4L, S10F, D70E
notes: human constant region
B19: CD81K13 HC 01-hVH_1_f / LC 04-hVK_1_9 (antibody, V domains shown)
VH: B14 VH
VL: B7 VL with M4L, S10F, D70E, A84G
notes: human constant region
B20: CD81K04 HC CD81K04 / LC CD81K04 (antibody, V domains shown)
VH: B3 VH
VL: B1 VL
notes: human constant region; also called CD81K04 (chimeric form)
B21: CD81K04 HC CD81K04 / LC GG-02-hVK_4_1 (antibody, V domains shown)
VH: B3 VH
VL: DIVMTQSPDSLAVSLGERATINCKSSKSVSTSIYSYMHWYQQKPGQPPKLLIYYASYRESGVPDRFSGSGSGTDFTLTISSLQAEDVAVYYCQHSREFPFTFGQGTKLEIK
notes: human constant region
B22: CD81K04 HC CD81K04 / LC JA_GG-10-hVK_4_1 (antibody, V domains shown)
VH: B3 VH
VL: B21 VL with K24R, S25A, Y53K, R58L, Q93E
notes: human constant region
B23: CD81K04 HC GG-01-hVH_5_51 / LC CD81K04 (antibody, V domains shown)
VH: EVQLVQSGAEVKKPGESLKISCKGSGYSFSSSWMNWVRQMPGKGLEWMGRIYSGDGDAIYSPSFQGQVTISADKSISTAYLQLSSLKASDTAMYYCAREGKTGDLLLRSWGQGTLVTVSS
VL: B1 VL
notes: human constant region
B24: CD81K04 HC GG-07-hVH_5_51 / LC CD81K04 (antibody, V domains shown)
VH: B23 VH with N35C, R50C
VL: B1 VL
notes: human constant region
B25: CD81K04 HC GG-01-hVH_5_51 / LC GG-02-hVK_4_1 (antibody, V domains shown)
VH: B23 VH
VL: B21 VL
notes: human constant region
B26: CD81K04 HC GG-01-hVH_5_51 / LC GG-03-hVK_4_1 (antibody, V domains shown)
VH: B23 VH
VL: B21 VL with M37L, H38A
notes: human constant region
B27: CD81K04 HC GG-01-hVH_5_51 / LC GG-04-hVK_4_1 (antibody, V domains shown)
VH: B23 VH
VL: B21 VL with M37L, H38A, Y57T, F100Y
notes: human constant region
B28: CD81K04 HC GG-01-hVH_5_51 / LC JA_GG-08-hVK_4_1 (antibody, V domains shown)
VH: B23 VH
VL: B21 VL with Y53K, R58L, Q93E
notes: human constant region
B29: CD81K04 HC GG-01-hVH_5_51 / LC JA_GG-09-hVK_4_1 (antibody, V domains shown)
VH: B23 VH
VL: B21 VL with Y53K, Y57T, Q93E
notes: human constant region
B30: CD81K04 HC GG-01-hVH_5_51 / LC JA_GG-10-hVK_4_1 (antibody, V domains shown)
VH: B23 VH
VL: B21 VL with K24R, S25A, Y53K, R58L, Q93E
notes: human constant region
B31: CD81K04 HC GG-01-hVH_5_51 / LC GG-05-hVK_3_11 (antibody, V domains shown)
VH: B23 VH
VL: EIVLTQSPATLSLSPGERATLSCRASKSVSTSIYSYLHWYQQKPGQAPRLLIYYASNRETGIPARFSGSGSGTDFTLTISSLEPEDFAVYYCQHSREFPFTFGQGTKLEIK
notes: human constant region
B32: CD81K04 HC GG-01-hVH_5_51 / LC GG-06-hVK_1_39 (antibody, V domains shown)
VH: B23 VH
VL: B3 VL
notes: human constant region
B33: CD81K04 HC GG-01-hVH_5_51 / LC JA_GG-07-hVK_7_3 (antibody, V domains shown)
VH: B23 VH
VL: DIVLTQSPASLAVSPGQRATITCRASKSVSTSIYSYMHWYQQKPGQPPKLLIKYASNKDTGVPARFSGSGSGTDFTLTINPVEANDAANYYCLHSREFPYTFGQGTKLEIK
notes: human constant region
B34: CD81K04 HC GG-05-hVH_1_18 / LC JA_GG-10-hVK_4_1 (antibody, V domains shown)
VH: B1 VH with N61A, G62Q, F64L, K65Q, I70M, A72T, A76T, S84R, E89D
VL: B21 VL with K24R, S25A, Y53K, R58L, Q93E
notes: human constant region

Columns and labels:
CD81 [1] = biological target: T1, CD81; assay: cell ELISA
Protocol: (§1) For the binding cell ELISA assay, HuH7-Rluc-H3 (positive cell line expressing CD81) and HuH7-Rluc-L1 (negative control cell line) were propagated in F-12 DMEM medium with 10% FCS at 37° C. and 5% CO₂. On day 1, the cells were trypsinized at approximately 90% confluence and resuspended at 4×10⁵ cells/mL. […] On day 2, the antibody samples to be tested were prepared in a separate polypropylene round bottom plate with a twofold desired concentration with a final volume of 120 μl. All of the assay samples were diluted in cell culture medium. […] After fixation, each well was washed 3 times with 200 μL PBS/0.05% Tween. The secondary incubation step for detection of bound anti-CD81 antibodies was performed for 2 h at room temperature on a reciprocal shaker. […] Each well was washed three times with 200 μL PBS/0.05% Tween to remove unbound antibodies. […] The absorbance was read using the ELISA Tecan reader at 450 nm with 620 nm reference wavelength.

CD81 [2] = biological target: T1, CD81; assay: cell ELISA; remark: listed apart in the source
Protocol: as §1
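Further: antibody binding to HuH7 cells expressing CD81 versus a CD81-negative HuH7 control line, bound antibody detected by secondary reagent, absorbance at 450 nm with 620 nm reference.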

Binder | ELISA data (CD81 [1]) | ELISA data (CD81 [2])
B1 | 0.98 | –
B2 | 0.974 | –
B3 | 0.185 | –
B4 | – | 0.95
B5 | – | 1.01
B6 | – | 0.86
B7 | – | 0.886
B8 | – | 0.949
B9 | – | 0.851
B10 | – | 0.594
B11 | – | 0.751
B12 | – | 0.811
B13 | – | 0.199
B14 | – | 0.272
B15 | – | 0.527
B16 | – | 0.392
B17 | – | 0.617

Binder | ELISA data (CD81 [1]) | ELISA data (CD81 [2])
B18 | – | 0.294
B19 | – | 0.244
B20 | 1.14 | –
B21 | 0.785 | –
B22 | 1.06 | –
B23 | 0.082 | –
B24 | 0.233 | –
B25 | 0.081 | –
B26 | 0.129 | –
B27 | 0.186 | –
B28 | 0.164 | –
B29 | 0.148 | –
B30 | 0.064 | –
B31 | 0.073 | –
B32 | 0.089 | –
B33 | 0.061 | –
B34 | 0.841 | –
